Results as given in paper PMC7214467 (Nature Communications, 2020).

What was measured:
[1] = biological target: HLA-A2/NY-ESO-1 peptide complex on tumor cells (Homo sapiens, HLA-A2 (A*02:01 assumed), …); test: cell-based or functional assay
CD3 on Jurkat cells = biological target: T1, CD3 on Jurkat cells (Homo sapiens, endogenous on Jurkat …, UniProt P07766); test: flow cytometry on cells; Jurkat cells; titrated from 30 μg/mL in 3-fold dilutions, on ice; detected with PE goat anti-human lambda; conditions: one partner purified
T1 construct: CD3 of the T cell receptor complex on Jurkat cells; On cells CD3ε stands with the other CD3 chains and the TCR; also called CD3+ Jurkat cells; source: endogenous, on Jurkat cells (ATCC TIB-152)
T1 sequence (P07766 23-207): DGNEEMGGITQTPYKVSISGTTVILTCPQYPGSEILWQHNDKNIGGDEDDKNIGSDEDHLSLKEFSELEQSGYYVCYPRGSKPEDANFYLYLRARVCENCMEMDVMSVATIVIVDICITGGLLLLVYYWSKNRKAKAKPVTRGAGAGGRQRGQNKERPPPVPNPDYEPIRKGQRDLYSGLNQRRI

B1: TCR/CD3 IgG BsAb with the 1G4_122 NY-ESO-1 TCR (stabilized Cα/Cβ subunit) and the chimeric SP-34 anti-CD3 arm (bispecific antibody, V domains shown)
VH: EVQLVESGGGLVQPKGSLKLSCAASGFTFNTYAMNWVRQAPGKGLEWVARIRSKYNNYATYYADSVKDRFTISRDDSQSLLYLQMNNLKTEDTAMYYCVRHGNFGNSYVSWFAYWGQGTLVTVSA
VL: QAVVTQESALTTSPGETVTLTCRSSTGAVTTSNYANWVQEKPDHLFTGLIGGTNKRAPGVPARFSGSLIGDKAALTITGAQTEDEAIYFCALWYSNLWVFGGGTKLTVL
notes: soluble 1G4_122 TCR α chain; Cα with the stabilizing mutations as in m1; soluble 1G4_122 TCR β chain; Cβ with the stabilizing mutations as in m2; detected with goat anti-human lambda; Two heavy chains joined by the 7.8.60 Fc heterodimer design; also called IgG-like BsAb; TCR/CD3 bifunctional; source: CHO K1SV KO, transient, secreted, purified (mAbSure resin, preparative size exclusion); copies: + …
In the case of B1, the “T cell redirected lysis of peptide-pulsed Saos-2 cells by primary T cells, 48 h, EC50” value [1] is reported as ~1 nM and the binding result (CD3 on Jurkat cells) is reported as “binds”.

B2: TCR/CD3 Tandem BsAb with the stabilized 1G4_122 NY-ESO-1 TCR and the chimeric SP-34 anti-CD3 Fab (bispecific antibody, V domains shown)
VH: EVQLVESGGGLVQPKGSLKLSCAASGFTFNTYAMNWVRQAPGKGLEWVARIRSKYNNYATYYADSVKDRFTISRDDSQSLLYLQMNNLKTEDTAMYYCVRHGNFGNSYVSWFAYWGQGTLVTVSA
VL: QAVVTQESALTTSPGETVTLTCRSSTGAVTTSNYANWVQEKPDHLFTGLIGGTNKRAPGVPARFSGSLIGDKAALTITGAQTEDEAIYFCALWYSNLWVFGGGTKLTVL
notes: soluble 1G4_122 TCR α chain; Cα with the stabilizing mutations as in m1; soluble 1G4_122 TCR β chain; Cβ with the stabilizing mutations as in m2; detected with goat anti-human lambda; also called tandem Fab BsAb; tandem Fab; copies: + + +
With B2 the “T cell redirected lysis of peptide-pulsed 624.38 cells by primary T cells, 48 h, EC50” value [1] was ~0.1 nM, the “T cell redirected lysis of peptide-pulsed Saos-2 cells by primary T cells, 48 h, EC50” value [1] was ~0.03 nM and the binding result (CD3 on Jurkat cells) was “binds”.
